Measured values taken from paper PMC5758712.

Assays:
UbcH5B (Homo sapiens) = UbcH5B (Homo sapiens) (UniProt P62837); conditions: cited from earlier work
UbcH7 = UbcH7 (UniProt P68036); experiment: ITC; E2 or E2~Ub in the cell at 25–30 μM, RBR in the syringe at 250–300 μM; 293 K; 25 mM Hepes pH 7.5, 150 mM NaCl, 0.5 mM TCEP; 1:1 binding model
UbcH7-Ub = UbcH7-Ub (UniProt P68036); experiment: as above
UbcH5A-Ub = UbcH5A-Ub (UniProt P51668); experiment: as above

Sequence of RNF144A-Ring1 (P50876 whole entry, the tested form may be a part): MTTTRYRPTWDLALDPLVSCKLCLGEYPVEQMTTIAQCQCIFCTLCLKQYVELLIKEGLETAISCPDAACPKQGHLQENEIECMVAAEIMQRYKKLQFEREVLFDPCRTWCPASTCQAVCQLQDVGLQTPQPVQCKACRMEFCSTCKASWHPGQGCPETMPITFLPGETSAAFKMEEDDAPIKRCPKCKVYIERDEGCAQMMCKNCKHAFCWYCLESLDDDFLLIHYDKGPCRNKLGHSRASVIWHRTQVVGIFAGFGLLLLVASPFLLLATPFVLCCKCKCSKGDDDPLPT
Sequence of HHARI-Ring1 (Q9Y4X5 whole entry, the tested form may be a part): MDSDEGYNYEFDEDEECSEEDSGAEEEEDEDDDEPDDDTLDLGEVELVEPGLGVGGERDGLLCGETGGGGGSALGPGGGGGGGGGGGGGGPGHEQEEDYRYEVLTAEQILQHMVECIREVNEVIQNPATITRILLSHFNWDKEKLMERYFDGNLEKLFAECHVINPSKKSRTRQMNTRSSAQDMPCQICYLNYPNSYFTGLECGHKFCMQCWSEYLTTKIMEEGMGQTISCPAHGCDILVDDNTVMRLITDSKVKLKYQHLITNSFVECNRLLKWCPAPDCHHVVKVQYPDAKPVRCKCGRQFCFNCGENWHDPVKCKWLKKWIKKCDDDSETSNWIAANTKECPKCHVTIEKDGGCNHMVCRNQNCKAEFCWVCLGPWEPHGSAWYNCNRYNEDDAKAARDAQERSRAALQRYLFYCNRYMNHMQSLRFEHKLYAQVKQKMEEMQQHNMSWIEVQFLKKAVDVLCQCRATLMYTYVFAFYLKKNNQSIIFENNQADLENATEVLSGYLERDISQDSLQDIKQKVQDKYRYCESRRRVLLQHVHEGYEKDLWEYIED
Sequence of HHARI-RBR (Q9Y4X5 whole entry, the tested form may be a part): as above
Sequence of HOIP-Ring1 (Q96EP0 whole entry, the tested form may be a part): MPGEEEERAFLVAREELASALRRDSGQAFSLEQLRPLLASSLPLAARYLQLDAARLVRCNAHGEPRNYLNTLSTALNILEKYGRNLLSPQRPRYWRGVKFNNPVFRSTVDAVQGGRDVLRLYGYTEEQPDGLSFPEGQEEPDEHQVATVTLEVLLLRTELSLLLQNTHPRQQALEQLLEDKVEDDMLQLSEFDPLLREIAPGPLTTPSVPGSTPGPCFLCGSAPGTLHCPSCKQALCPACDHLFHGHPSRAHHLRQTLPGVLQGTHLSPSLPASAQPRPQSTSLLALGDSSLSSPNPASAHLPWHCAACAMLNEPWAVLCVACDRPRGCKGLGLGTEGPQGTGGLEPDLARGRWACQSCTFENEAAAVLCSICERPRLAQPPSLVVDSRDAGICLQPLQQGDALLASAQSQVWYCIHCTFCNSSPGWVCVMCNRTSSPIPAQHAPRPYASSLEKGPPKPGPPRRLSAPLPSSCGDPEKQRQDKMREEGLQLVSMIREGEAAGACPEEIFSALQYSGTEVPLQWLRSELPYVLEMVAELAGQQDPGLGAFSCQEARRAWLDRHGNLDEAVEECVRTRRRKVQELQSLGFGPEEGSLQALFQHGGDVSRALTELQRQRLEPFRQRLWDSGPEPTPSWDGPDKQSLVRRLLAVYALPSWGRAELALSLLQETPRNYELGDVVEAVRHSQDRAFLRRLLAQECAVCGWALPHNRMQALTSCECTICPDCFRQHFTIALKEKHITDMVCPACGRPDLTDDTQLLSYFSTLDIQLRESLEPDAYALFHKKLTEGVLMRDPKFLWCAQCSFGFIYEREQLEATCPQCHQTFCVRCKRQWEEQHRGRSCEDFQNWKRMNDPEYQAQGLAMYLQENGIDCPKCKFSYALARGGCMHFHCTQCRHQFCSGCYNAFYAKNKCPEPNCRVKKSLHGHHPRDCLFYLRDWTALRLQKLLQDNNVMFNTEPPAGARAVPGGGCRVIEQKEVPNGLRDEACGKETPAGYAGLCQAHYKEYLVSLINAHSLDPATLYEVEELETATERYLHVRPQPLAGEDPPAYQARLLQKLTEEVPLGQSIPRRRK
Sequence of HOIP-RBR (Q96EP0 whole entry, the tested form may be a part): as above
Sequence of RNF144A-RBR (P50876 1-250): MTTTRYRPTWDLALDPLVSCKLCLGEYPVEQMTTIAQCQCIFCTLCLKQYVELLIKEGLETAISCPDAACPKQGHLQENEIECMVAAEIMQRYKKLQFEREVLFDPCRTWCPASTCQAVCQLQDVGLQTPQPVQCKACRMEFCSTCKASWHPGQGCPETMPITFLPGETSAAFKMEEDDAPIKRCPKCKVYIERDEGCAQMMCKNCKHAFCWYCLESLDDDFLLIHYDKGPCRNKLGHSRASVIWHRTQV
Sequence of HHARI (Q9Y4X5 whole entry): as the sequence (Q9Y4X5 whole entry, the tested form may be a part) above
Sequence of UbcH5B (Homo sapiens) (P62837 whole entry): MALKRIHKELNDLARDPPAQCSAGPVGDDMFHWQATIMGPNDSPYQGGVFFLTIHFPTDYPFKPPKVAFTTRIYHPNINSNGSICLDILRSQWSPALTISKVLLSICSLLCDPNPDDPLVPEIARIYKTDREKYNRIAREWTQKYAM

Substance | Kd (UbcH5B (Homo sapiens)) | Kd (UbcH7) | dH (UbcH7) | stoichiometry N (UbcH7) | Kd (UbcH7-Ub) | dH (UbcH7-Ub) | stoichiometry N (UbcH7-Ub) | Kd (UbcH5A-Ub) | dH (UbcH5A-Ub) | stoichiometry N (UbcH5A-Ub)
HHARI (from UniProt Q9Y4X5) | 20 µM | – | – | – | – | – | – | – | – | –
HHARI-RBR (from UniProt Q9Y4X5 1-557) (domain or fragment) | – | 410 nM | 1.8 kcal/mol | 0.9 | 200 nM | -2.3 kcal/mol | 0.9 | 4.5 µM | -3.7 kcal/mol | 0.8
HHARI-Ring1 (from UniProt Q9Y4X5 1-557) (domain or fragment) | – | 210 nM | 4.2 kcal/mol | 0.8 | 120 nM | 3.9 kcal/mol | 0.8 | > 50 µM | – | –
HOIP-RBR (from UniProt Q96EP0 1-1072) (domain or fragment) | – | 2300 nM | 0.8 kcal/mol | 0.8 | 900 nM | 0.8 kcal/mol | 0.9 | 4.3 µM | -8.2 kcal/mol | 0.9
HOIP-Ring1 (from UniProt Q96EP0 1-1072) (domain or fragment) | – | – | 1.4 kcal/mol | 1 | 4300 nM | 1.1 kcal/mol | 0.9 | > 50 µM | – | –
RNF144A-RBR (from UniProt P50876 1-250) (domain or fragment) | – | 1000 nM | 1.7 kcal/mol | 0.9 | 520 nM | -0.9 kcal/mol | 0.8 | – | – | –
RNF144A-Ring1 (from UniProt P50876 1-292) (domain or fragment) | – | 2200 nM | 3.5 kcal/mol | 0.8 | 1000 nM | 2.7 kcal/mol | 0.8 | > 50 µM | – | –
TRIAD3A-RBR (from UniProt Q9NWF9-2 510-801) (domain or fragment) | – | – | – | – | 2400 nM | 3.7 kcal/mol | 0.9 | – | – | –
TRIAD3A-Ring1 (from UniProt Q9NWF9-2 1-866) (domain or fragment) | – | 3200 nM | 4.5 kcal/mol | 0.8 | 4300 nM | 3.6 kcal/mol | 0.8 | > 50 µM | – | –
